Test results taken from patent US20140175018A1.
Where two headings read alike, the source gives them in different places. Blank lines part the entries; values can stand above or below the substance they belong to.

Key:
[1] = target: T1, chemokine (C-X-C motif) receptor 1 (CXCR1) (human) (UniProt P25024); assay: cell-based or functional assay
T1 sequence (looked up): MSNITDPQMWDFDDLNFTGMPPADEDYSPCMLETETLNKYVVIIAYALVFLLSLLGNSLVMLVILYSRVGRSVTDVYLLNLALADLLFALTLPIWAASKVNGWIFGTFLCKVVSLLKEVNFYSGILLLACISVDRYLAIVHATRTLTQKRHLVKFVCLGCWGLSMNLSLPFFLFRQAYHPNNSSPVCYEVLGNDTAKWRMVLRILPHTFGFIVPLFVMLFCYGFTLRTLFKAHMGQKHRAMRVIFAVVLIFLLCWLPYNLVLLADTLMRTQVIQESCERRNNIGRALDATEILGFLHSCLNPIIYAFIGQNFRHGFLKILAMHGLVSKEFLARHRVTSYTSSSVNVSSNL

[2] = target: chemokine (C-X-C motif) receptor 3 (CXCR3) (human) (UniProt P49682); assay: cell-based or functional assay
Chain of chemokine (C-X-C motif) receptor 3 (CXCR3) (human) (P49682 whole entry): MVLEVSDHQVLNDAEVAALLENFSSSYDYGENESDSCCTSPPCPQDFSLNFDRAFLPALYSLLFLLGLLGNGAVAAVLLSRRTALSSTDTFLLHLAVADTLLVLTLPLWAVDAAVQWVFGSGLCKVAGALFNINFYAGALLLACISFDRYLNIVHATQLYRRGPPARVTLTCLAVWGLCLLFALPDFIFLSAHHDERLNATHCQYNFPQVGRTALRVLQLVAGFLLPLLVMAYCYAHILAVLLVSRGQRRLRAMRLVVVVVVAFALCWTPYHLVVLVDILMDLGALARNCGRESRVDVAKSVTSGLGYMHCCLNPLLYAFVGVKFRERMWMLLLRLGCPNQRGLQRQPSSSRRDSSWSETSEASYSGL

[3] = target: chemokine (C-C motif) receptor 3 (CCR3) (human) (UniProt P51677); assay: blood passed through chemokine-coupled column; flow cytometry before and after
Chain of chemokine (C-C motif) receptor 3 (CCR3) (human) (P51677 whole entry): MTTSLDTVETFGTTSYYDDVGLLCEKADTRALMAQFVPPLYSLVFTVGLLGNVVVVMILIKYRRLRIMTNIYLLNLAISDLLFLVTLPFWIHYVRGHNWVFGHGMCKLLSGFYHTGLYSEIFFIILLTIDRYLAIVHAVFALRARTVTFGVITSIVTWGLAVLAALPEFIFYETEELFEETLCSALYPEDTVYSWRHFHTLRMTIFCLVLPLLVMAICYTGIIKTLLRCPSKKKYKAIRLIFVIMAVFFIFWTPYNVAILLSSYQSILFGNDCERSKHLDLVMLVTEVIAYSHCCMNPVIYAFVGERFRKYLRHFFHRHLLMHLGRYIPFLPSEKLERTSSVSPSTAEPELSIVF

[4] = target: chemokine (C-C motif) receptor 3 (CCR3) (human) (UniProt P51677); assay: blood passed through magnetic column with RANTES-coupled MACS beads; flow cytometry before and after
[5] = target: chemokine (C-X-C motif) receptor 4 (CXCR4) (human) (UniProt P61073); assay: cell-based or functional assay
Chain of chemokine (C-X-C motif) receptor 4 (CXCR4) (human) (P61073 whole entry): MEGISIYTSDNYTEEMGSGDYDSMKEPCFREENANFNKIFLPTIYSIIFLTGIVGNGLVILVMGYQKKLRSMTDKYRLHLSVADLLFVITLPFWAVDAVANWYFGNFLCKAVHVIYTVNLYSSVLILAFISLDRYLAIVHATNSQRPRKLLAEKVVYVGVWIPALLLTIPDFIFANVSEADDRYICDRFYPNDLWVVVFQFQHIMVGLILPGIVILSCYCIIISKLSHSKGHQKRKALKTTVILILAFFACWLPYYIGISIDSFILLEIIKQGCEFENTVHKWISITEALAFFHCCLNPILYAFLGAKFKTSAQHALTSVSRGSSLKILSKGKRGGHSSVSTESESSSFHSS

[6] = target: T2, chemokine (C-C motif) receptor 4 (CCR4) (human) (UniProt P51679); assay: cell-based or functional assay
T2 sequence (looked up): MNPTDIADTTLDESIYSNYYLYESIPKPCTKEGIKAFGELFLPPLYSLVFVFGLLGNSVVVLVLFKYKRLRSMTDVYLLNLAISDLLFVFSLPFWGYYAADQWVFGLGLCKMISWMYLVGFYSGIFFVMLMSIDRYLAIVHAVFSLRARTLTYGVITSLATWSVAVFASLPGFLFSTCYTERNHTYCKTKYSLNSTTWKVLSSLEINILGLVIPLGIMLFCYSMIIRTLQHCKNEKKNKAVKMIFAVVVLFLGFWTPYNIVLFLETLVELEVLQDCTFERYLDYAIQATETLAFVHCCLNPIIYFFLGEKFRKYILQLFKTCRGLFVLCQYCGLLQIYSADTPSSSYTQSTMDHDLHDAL

[7] = target: T1, chemokine (C-X-C motif) receptor 1 (CXCR1) (human); assay: cell-based or functional assay; remark: listed apart in the source
[8] = target: T3, chemokine (C-C motif) receptor 6 (CCR6) (human) (UniProt P51684); assay: cell-based or functional assay
T3 sequence (looked up): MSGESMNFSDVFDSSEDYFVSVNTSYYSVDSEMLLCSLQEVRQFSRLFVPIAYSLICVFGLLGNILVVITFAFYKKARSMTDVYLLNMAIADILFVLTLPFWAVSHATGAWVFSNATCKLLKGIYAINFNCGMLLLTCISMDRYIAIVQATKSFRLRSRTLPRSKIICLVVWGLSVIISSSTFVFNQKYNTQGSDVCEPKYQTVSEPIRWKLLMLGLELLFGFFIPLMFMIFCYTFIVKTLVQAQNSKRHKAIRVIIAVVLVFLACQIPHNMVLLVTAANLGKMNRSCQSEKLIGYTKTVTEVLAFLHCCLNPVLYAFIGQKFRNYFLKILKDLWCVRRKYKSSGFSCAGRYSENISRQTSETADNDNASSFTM

[9] = target: chemokine (C-C motif) receptor 7 (CCR7) (human) (UniProt P32248); assay: cell-based or functional assay
Chain of chemokine (C-C motif) receptor 7 (CCR7) (human) (P32248 25-378): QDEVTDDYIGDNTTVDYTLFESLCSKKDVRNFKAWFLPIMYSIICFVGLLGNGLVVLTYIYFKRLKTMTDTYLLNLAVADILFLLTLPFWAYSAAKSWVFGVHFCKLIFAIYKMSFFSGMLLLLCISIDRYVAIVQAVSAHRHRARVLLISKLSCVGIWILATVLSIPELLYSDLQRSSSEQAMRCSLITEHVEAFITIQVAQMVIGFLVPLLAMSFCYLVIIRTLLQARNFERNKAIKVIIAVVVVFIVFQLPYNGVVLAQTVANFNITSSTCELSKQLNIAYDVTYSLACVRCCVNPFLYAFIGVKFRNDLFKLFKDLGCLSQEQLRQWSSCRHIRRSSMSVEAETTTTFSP

[10] = target: chemokine (C-C motif) receptor 9 (CCR9) (human) (UniProt P51686); assay: cell-based or functional assay
Chain of chemokine (C-C motif) receptor 9 (CCR9) (human) (P51686 whole entry): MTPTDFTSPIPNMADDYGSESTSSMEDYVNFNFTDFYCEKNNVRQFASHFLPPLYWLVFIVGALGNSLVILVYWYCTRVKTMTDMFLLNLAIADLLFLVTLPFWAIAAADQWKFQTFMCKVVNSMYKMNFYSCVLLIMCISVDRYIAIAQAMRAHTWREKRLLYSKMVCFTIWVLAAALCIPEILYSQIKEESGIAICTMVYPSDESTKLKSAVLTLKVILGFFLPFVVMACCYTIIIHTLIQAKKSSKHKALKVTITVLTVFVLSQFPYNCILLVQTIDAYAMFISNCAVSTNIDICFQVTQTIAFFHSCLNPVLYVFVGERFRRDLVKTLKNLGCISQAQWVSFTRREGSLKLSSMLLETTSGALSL

[11] = target: chemokine (C-C motif) receptor 9 (CCR9) (human) (UniProt P51686); assay: cell-based or functional assay; remark: listed apart in the source
[12] = target: chemokine (C-C motif) receptor 3 (CCR3) (human) (UniProt P51677); assay: cell-based or functional assay

Chain of recombinant native IL-8 (P10145 28-99 limits assumed): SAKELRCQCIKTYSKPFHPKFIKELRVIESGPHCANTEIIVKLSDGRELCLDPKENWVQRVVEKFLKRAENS
Chain of recombinant native TARC (Q92583 24-94 limits assumed): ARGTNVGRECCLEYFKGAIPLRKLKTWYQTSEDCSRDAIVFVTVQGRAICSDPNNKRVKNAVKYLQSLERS
Chain of recombinant native MIP-3a (P78556 27-96 limits assumed): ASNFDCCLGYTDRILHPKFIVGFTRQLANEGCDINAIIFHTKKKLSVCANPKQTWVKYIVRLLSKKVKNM
Chain of UniProt Q92583 (Q92583 other isoform, or with tags, fused parts or gaps limits assumed): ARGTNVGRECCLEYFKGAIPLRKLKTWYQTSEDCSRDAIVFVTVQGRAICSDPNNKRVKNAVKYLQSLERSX
Chain of UniProt P10145 (P10145 other isoform, or with tags, fused parts or gaps limits assumed): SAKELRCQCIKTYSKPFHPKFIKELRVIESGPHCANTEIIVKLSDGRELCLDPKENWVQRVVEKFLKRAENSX

Substance: biotinIL-8 (6-78): IL-8 (6-78) derivatised at Lys(78) with PEG-Biotin (from UniProt P10145 28-99) (ligand)
EC50 (agonist activity, Aequorin assay) [1]: 6.1 nM

Substance: biotinRANTES (CCL5): RANTES derivatised at Lys(67) with Biotin (from UniProt P13501 24-91) (ligand)
percent reduction of chemokine receptor-expressing cells (CCR1, 3 or 5, not told apart) [3]: 20%
percent reduction of chemokine receptor-expressing cells (CCR1, 3 or 5, not told apart) [4]: 20%

Substance: biotinTARC (CCL17): TARC derivatised at Lys(72) with PEG-Biotin (from UniProt Q92583 24-94) (ligand)
EC50 (agonist activity, Aequorin assay) [6]: 3.1 nM

Substance: recombinant native IL-8 (from UniProt P10145 28-99) (ligand)
EC50 (agonist activity, Aequorin assay) [7]: 4.1 nM
EC50 (agonist activity, Aequorin assay) [1]: 4.2 nM

Substance: recombinant native TECK (from UniProt O15444 24-150) (ligand)
EC50 (agonist activity, Aequorin assay) [10]: 67.9 nM
EC50 (agonist activity, Aequorin assay) [11]: 67.9 nM

Substance: recombinant native eotaxin (from UniProt P51671 24-97) (ligand)
EC50 (agonist, Aequorin assay) [12]: 10.7 nM

Second part, the substance after the results:

EC50 (agonist activity, Aequorin assay) [2]: 8.7 nM
Substance: biotinIP-10 (CXCL10): IP-10 derivatised with Biotin at an additional C-terminal Lysine after a PEG spacer (from UniProt P02778 22-98) (ligand)

EC50 (agonist activity, Aequorin assay) [5]: 17.3 nM
Substance: biotinSDF-1a (CXCL12): SDF-1a derivatised at Lys(64) with Biotin (from UniProt P48061 22-67) (ligand)

EC50 (agonist activity, Aequorin assay) [2]: 4.4 nM
Substance: recombinant native IP-10 (from UniProt P02778 22-98) (ligand)

EC50 (agonist activity, Aequorin assay) [8]: 1 nM
Substance: recombinant native MIP-3a (from UniProt P78556 27-96) (ligand)

EC50 (agonist activity, Aequorin assay) [9]: 1.6 nM
Substance: recombinant native MIP-3b (from UniProt Q99731 22-98) (ligand)

EC50 (agonist activity, Aequorin assay) [6]: 2.6 nM
Substance: recombinant native TARC (from UniProt Q92583 24-94) (ligand)
